Source: US20250179196A1 (Janssen / Centocor, published 2025)

T1: Recombinant human IL-23 receptor (IL-23R) extracellular domain (ECD) protein (human, UniProt Q5VWK5 24-355)
T1 construct: also called human IL-23R ECD; hu IL-23R ECD
T1 sequence: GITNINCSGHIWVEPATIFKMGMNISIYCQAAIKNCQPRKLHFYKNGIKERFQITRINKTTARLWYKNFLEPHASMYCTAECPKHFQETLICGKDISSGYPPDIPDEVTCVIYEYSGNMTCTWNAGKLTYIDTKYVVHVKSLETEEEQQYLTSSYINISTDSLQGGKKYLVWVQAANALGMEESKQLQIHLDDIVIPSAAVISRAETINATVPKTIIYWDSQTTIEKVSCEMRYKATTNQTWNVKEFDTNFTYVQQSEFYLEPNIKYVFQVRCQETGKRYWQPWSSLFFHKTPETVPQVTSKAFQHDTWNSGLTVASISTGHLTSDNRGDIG

T2: rat IL-23R extracellular domain (ECD) protein (rat)
T2 construct: also called rat IL-23R ECD; F1LX96 amino acids 24-354
T2 chain: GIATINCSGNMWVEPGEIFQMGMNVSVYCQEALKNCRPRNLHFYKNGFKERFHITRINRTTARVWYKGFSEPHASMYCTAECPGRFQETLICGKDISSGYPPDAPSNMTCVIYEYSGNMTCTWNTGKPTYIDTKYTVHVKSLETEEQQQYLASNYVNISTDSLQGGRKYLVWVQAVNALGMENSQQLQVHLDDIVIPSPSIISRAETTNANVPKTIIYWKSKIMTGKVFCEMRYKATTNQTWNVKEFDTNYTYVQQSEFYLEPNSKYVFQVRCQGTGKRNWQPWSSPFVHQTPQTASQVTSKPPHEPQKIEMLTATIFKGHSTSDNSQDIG

T3: human IL-23R on the cell surface (human, UniProt Q5VWK5 24-629)
T3 construct: whole, on cells; also called cell surface human IL-23R; IL-23R on iLite cells, HEK-IL-23R cells and primary human immune cells
T3 sequence (looked up): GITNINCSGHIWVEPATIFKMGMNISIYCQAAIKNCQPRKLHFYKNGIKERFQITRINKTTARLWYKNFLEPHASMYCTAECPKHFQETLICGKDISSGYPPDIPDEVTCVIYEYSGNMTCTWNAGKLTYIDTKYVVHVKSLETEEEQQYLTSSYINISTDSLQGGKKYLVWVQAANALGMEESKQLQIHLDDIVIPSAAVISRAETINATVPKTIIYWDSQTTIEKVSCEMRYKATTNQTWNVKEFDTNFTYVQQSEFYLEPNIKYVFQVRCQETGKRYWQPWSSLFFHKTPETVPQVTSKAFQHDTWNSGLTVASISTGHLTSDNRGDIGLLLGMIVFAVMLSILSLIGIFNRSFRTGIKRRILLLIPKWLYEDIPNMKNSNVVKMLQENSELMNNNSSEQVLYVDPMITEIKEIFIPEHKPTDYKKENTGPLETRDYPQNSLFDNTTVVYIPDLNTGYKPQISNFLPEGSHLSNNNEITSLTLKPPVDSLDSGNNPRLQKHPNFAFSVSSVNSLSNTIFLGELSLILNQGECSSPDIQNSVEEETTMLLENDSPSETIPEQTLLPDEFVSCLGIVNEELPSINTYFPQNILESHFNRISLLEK


How the values were obtained:
[1] = molecular target: T1, Recombinant human IL-23 receptor …; test: SPR Biacore 8K, supernatant, analysis 2
How it was run: (§1)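 mAbs captured (~150 RU) on Biacore 8K; human or rat IL-23R ECD injected at 0.8–500 nM (5-fold series) at 25 °C in HBS-P+ with 100 μg/ml BSA. Association 3 min at 50 μL/min, dissociation 30 min. Ka, Kd and KD from Langmuir 1:1 fit.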

[2] = molecular target: T2, rat IL-23R extracellular domain (ECD) …; test: SPR Biacore 8K, supernatant
How it was run: as §1

[3] = molecular target: T3, human IL-23R on the cell surface; test: flow cytometry, HEK-IL-23R cells (Expt E)
[4] = molecular target: T1, Recombinant human IL-23 receptor …; test: SPR Biacore 8K, supernatant, analysis 1
How it was run: as §1

Binder | Kd [1] [nM] | koff [1] [s⁻¹] | kon [1] [M⁻¹ s⁻¹] | binding result [2] | EC50 [3] [nM] | Kd [4] [nM] | koff [4] [s⁻¹] | kon [4] [M⁻¹ s⁻¹]
I23RB71 (antibody, mouse IgG2a, kappa, V domains shown, mouse immunization; mouse IgG2a/kappa) VH: DVQLQESGPDLVKPSQSLSLTCTVTDYSITRGYNWHWIRQFPGNKLEWMGYIHYSGSTNYNPSLKSRISITRDTSKNQFFLQLNSVTTEDTATYYCARQYGLKAMDYWGQGTSVTVSS VL: DIVMTQSHKFMSTSVGDRVSITCKASQDVITAVAWYQQKPGQSPKLLIYSASYRYTGVPDRFTGSGSGTDFTFTISSVQAEDLAVYFCQQHFGTPYTFGSGTKLEMKR | 0.129 | 4.63e-05 | 358000 | no binding (tested: 500 nM) | ≤ 9.7 | 0.328 | 0.000231 | 704000
I23RB173 (antibody, mouse IgG2a, kappa, V domains shown, mouse immunization; mouse IgG2a/kappa) VH: DVQLQESGPGLVKPSQSLSLTCSVTGYSITSGYYWNWIRQFPGNKLEWMGYISYDGGNNYNPSLKNRISITRDTSKNQFFLKLNSVTTEDTATYYCARDAGLLPYYAMDYWGQGTTLTVSS VL: DIKMTQSPAIMSASPGEKVTITCSASSSVSYMHWFQQKPGTSPKLWIYSTSNLASGVPARFSGSGSGTSYSLTISRMEAEDAATYYCQQRSSYPLTFGDGTKLEMKR | 36.1 | 0.0103 | 285000 | no binding (tested: 500 nM) | ≤ 9.7 | 25.7 | 0.00759 | 296000
I23RB165 (antibody, mouse IgG2a, kappa, V domains shown, mouse immunization; mouse IgG2a/kappa) VH: EVQLQQSGAELVRPGASVKLSCTASGFNIKDSLMHWVKQRPEQGLEWIGWIDPEDGKTKYAPKFQDKATITADTSSNTAYLQLSSLTSEDTAIYYCARREVLDYFDYWGQGTTLTVSS VL: DIVMTQSPASLAVSLGQRATISCRASKSVSTSGYSYMHWYQQKPGQPPKLLIYLASNLESGVPARFSGSGSGTDFTLNIHPVEEEDAATYYCQHSRELPLTFGAGTKLEMKR | 29.1 | 0.00941 | 324000 | no binding (tested: 500 nM) | ≤ 9.7 | 18.1 | 0.00806 | 446000
